In this assay the target is T1, inhibin B (UniProt P05111 233-366; P09529 293-407).
T1 sequence (looked up) 1: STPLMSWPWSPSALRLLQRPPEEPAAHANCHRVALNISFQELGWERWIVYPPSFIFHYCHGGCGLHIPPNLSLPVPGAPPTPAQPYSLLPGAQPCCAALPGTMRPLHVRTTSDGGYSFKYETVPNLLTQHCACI
T1 sequence (looked up) 2: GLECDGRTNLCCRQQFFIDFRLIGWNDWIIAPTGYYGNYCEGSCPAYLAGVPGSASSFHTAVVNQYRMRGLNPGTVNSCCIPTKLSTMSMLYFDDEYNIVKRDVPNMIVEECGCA
In words: SPR. On the technique in general: SPR reads the build-up and loss of mass on a sensor chip optically.

Consider 1 molecule from PMC8673766 (Science Advances, 2021).

As a reminder, the Kd is the constant that tells how readily two partners part at equilibrium. High values mean a looser complex, low ones a tighter complex.

B1: murine TGFBR3L extracellular domain (R36-R211) (domain or fragment, UniProt D3YZZ2 36-211, looked up)
chain: RRPLFSLELSDAEDAFPRRAGPLEVPADSHVFVQAALARPSPRWGLALHRCSVTPSSRPTLGPALVLLRGGCPADDSVSFSPPPRPDAASVSRFSFRLRPVFNASVQFLHCQISRCRRRSSHHRRAVRLTPVPLTPPAPLRCLPQDEACAGSSLSLGTDSPHLHMLTQPIVVTIPR
B1 displayed a Kd of 52 nM.
